Results published in article PMC7781312 (bioRxiv, 2021).
Non-standard residues stand in square brackets, D forms with d. Primed or numbered codes have the meaning given here. No end group written: not given here. PEG6′ = PEG spacer between stem peptide and Lys-biotin; Biotin′ = not defined here

Columns and labels:
[1] = molecular target: T1, biotinylated mouse hepatitis virus S stem helix peptide (Murine hepatitis virus A59 (P11224), UniProt P11224); assay: BLI
T1 chain: DFKEELDKWFKNQTS[PEG6′]K-{Biotin′}

[2] = molecular target: T2, biotinylated HKU4 S stem helix peptide (Bat coronavirus HKU4 (A3EX94), UniProt A3EX94); assay: BLI
T2 chain: DFKDELEEFFKNVTS[PEG6′]K-{Biotin′}

[3] = molecular target: T3, biotinylated HKU5 S stem helix peptide (Bat coronavirus HKU5 (A3EXD0), UniProt A3EXD0); assay: BLI
T3 chain: DFKEELEEFFKNVSS[PEG6′]K-{Biotin′}

[4] = molecular target: T4, biotinylated MERS-CoV S stem helix peptide (MERS-CoV EMC/2012 (AFS88936), UniProt K0BRG7); assay: BLI
T4 chain: DFQDELDEFFKNVST[PEG6′]K-{Biotin′}

[5] = molecular target: T5, biotinylated SARS-CoV/SARS-CoV-2 S stem helix peptide (SARS-CoV-2 / SARS-CoV, identical …, UniProt P0DTC2); assay: BLI
T5 chain: SFKEELDKYFKNHTS[PEG6′]K-{Biotin′}

[6] = molecular target: T6, biotinylated OC43 S stem helix peptide (HCoV-OC43 (Q696P8), UniProt Q696P8); assay: BLI
T6 chain: DFKEELDQWFKNQTS[PEG6′]K-{Biotin′}

[7] = molecular target: T7, MERS-CoV S stem helix peptide, residues 1230-1240 (crystallised) (MERS-CoV (EMC/2012 numbering), UniProt K9N5Q8); assay: crystal structure
T7 chain: DFQDELDEFFK

[8] = molecular target: T8, MERS-CoV S stem helix peptide, residues 1230-1244 (crystallised) (MERS-CoV, UniProt K9N5Q8); assay: crystal structure
T8 chain: DFQDELDEFFKNVST

[9] = molecular target: T9, SARS-CoV/SARS-CoV-2 S stem helix peptide (crystallised) (SARS-CoV-2 / SARS-CoV, identical …, UniProt P0DTC2); assay: crystal structure
T9 chain: SFKEELDKYFKNHTS

[10] = molecular target: T10, HKU4 S stem helix peptide, residues 1231-1245 (crystallised) (bat coronavirus HKU4, UniProt A3EX94); assay: crystal structure
T10 chain: DFKDELEEFFKNVTS

Measured: binding result

B1: B6 monoclonal antibody (recombinant IgG with human constant regions) (antibody, V domains shown)
VH: EVQLQQSGPVLVKPGASVRMSCKASGYTITDYYLNWVKQSHGKSLEWLGVLNPYSGGSLYSQTFKGKATLTVDRSSSTAYLELNSLTSEDSAVYYCARQLGRGNGLDYWGQGTSVTVSS
VL: NIMMTQSPSSLAVSAGEKVTMSCKSSQSVLHSSDQKNYLAWYQQKPGQSPKLLIYWASTRESGVPDRFTGSGSGTDFTLTISSVQAEDLAVYFCHQYLSSYTFGGGTKLEIK
binds: [1] | [2] | [3] | [4] | [5] | [6]

B2: B6 Fab fragment (Fab, V domains shown)
VH: B1 VH
VL: B1 VL
binds: [1] | [2] | [3] | [4] | [5] | [6] | [7] | [8] | [9] | [10]
